According to a protein production outcome set (Wang et al. 2014):

Test: label from the status in PepcDB records
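Further: failed if final PepcDB status was selected cloned or expressed and not failed if soluble or beyond.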

Row | Sequence | protein production
1 | MRRQTMVKAGAVACAVALLGSLSACGGSKKSTTTADGKPIVTVLVKKNANQEKMANMQWAKDLEADCDCKIEWQEVTREAWAQQKNATLASGDIADVNLNGYGAVEAYQYPGMFEDLSKDLDKLPNVKAFFKQKPDAKKMSTDSKGRIYAIADGRGKAYSGTGQHMLINKAWLDKLGLQVPTTWDELENVLKAFKTQDPNGNGQADEIPMNIKKLEGSYFTWYSPMLLLNSTGIVTGFNKGVSEYGFYAKNGVVKSFLTSDEYKEVIKYYHKLISEGLIPAEWATKDDDAYNADQISDGKTAKTGVVFGWSPSDNFGKLKDQYIAMPVPSAPGVSPDQTVWDGSSSELSPAGLSISSHAANKDAALKLANLLYSEKYSVQQFLGSFGKAITKTGEHEYTVDNDKLSQLTGDNQYPGLSELLVGWIPDEATIKGDTHADELIEVNKVYEEQRSHFDPVKDYIPDYVNMDNMDPSDATKLNTNNAEIFNTTMQKTATWMSKGGIDEEWDAYCKQLDSIGLQESTKIWQKWYDTYTK | not failed
2 | MKRRSVLLSGVALSGTALANDSIFFSPLKYLGAEQQRSIDASRSLLDNLIPPSLPQYDNLAGKLARRAVLTSKKLVYVWTENFGNVKGVPMARSVPLGELPNVDWLLKTAGVIVELIVNFVASLPASAAAQFERIATGLSGDLEAARQVHEALLEEAKNDPAAAGSLLLRFTELQTRVIAILTRVGLLVDDILKSASNLVTQRGQGDGLNRFRAVFGTLRLPEVADSFRDDEAFAYWRVAGPNPLLIRRVDALPANFPLGEEQFRRVMGADDSLLEAAASRRLYLLDYAELGKLAPSGAVDKLLTGTGFAYAPIALFALGKDRARLLPVAIQCGQDPATHPMFVRPAESESDLYWGWQMAKTVVQVAEENYHEMFVHLAQTHLVSEAFCLATQRTLAPSHPLHVLLAPHFEGTLFINEGAARILLPSAGFIDVMFAAPIQDTQATAGGNRLGFDFYRGMLPESLKARNVDDPLALPDYPYRDDGLLVWNAIRQWAADYVAVYYASDGDVTADVELAAWVGEVIGSGKVAGFRPITGRSQLVEVLTMVIFTASAQHAAVNFPQPSMMTYAPAICAMSAAPAPDSPSGKSEADWLKMMPPTLVALEKVNIYHLLGSVYHGRLGDYRQTGFPYAPVFSDRRVTASGGPLERFQARLKEVEATIRTRNQARRRPYEYLLPSRIPASTNI | failed
3 | MAEASIQIEVVYATVQRQVLMTVDVPAGSSVRQALALCGMDREFPELDLSHCPVGIFGKVVADPAARVLEAGERIEIYRPLLADPMEIRRLRAAKAREKRTLPG | failed
4 | MGTYRKRFNEKARSGHMAKLKELKRIRNKQFTRQDENDERVENPDSAPAESSTTEPNANAEILEPLTEEEKKMKKRKLQELFTPKESKVSRLKKKRLDKFIEHQLKREERKTIIGKLQDYKIDTSLLTSSKRLGEGRQTKKEEFKEALSLERQGRGNEQTNEILYEEYEPKVWDEYGEGGSSEDDDGEDDFEASFGSMPKPTDNEEKKSSGFIDHRPAKFGGSGLSFGFSNIKVINKESKTPKKKYNWRQRVEMEELKKHGKEDEMDFDTTSEDDDEEEDQEEEDKMHPSENPLEEVESADSETGSEKFDQNDVANEFKDWANQEIKKLEGRDQELVTPTLNIDYKPIIRKEDLDDGLQEAYVPINENSTRKAFYVEVSRSDEIQKARIQLPVFGEEHKIMEAIHHNDVVIICGETGSGKTTQVPQFLYEAGFGAEDSPDYPGMVGITQPRRVAAVSMAERVANELGDHGHKVGYQIRFDSTAKEDTKVKFMTDGVLLREMMHDFKLTKYSSIIIDEAHERNINTDILIGMLSRCVRLRAKLHKENPIEHKKLKLIIMSATLRVSDFSENKTLFPIAPPVLQVDARQFPVSIHFNRRTAFNYTDEAFRKTCKIHQKLPPGAILVFLTGQQEITHMVKRLRKEFPFKKNSKYNKDLETPVSKMGINSKTTDLEAEDIDFSVQVIDQDKFKSAIRYEEDEGNSGNGEDEEDEEEEGFEEVLTEGQTANDPLYVLPLYSLLPTKEQMRVFQKPPQGSRLCIVATNVAETSLTIPGVRYVVDSGRSKERKYNESNGVQSFEVGWVSKASANQRSGRAGRTGPGHCYRLYSSAVFEHDFEQFSKPEILRMPVESIVLQMKSMAIHNIINFPFPTPPDRVALSKAIQLLQYLGALDNKEMITEDGKKMSLFPLSPRFSKMLLVSDEKACLPYIVAIVSALSVGDPFINEFELGINEISRKPNPDENLDDKIREHDESTPGMDPELKKELRSKFYKSRSQFSKLDKFSDVFRLLSVVSAMDYVPKEQKEIFMKKNFLRGKLMEEIVKLRKQLMYIIKSNTSKENIAVVIRNEDLKSDIPSVIQIKLLKQMICAGFVDHVAVRADVLFPDDAKITNRTSIINIPYIPVLATRTPNIEDCFVYIHPTSILNNLGEMPPKYMLYYSLHLGGNNKTRMNTLCDIASTPLANIARKGLLLTYSKPLTGQGLKTVNLSPTERYCYVVPRFGSTVDNDLKIGWDLNPIAVHQKKQKGQWTVIKFITRKGFQTITGEEKEKK | failed
5 | MKSILSLFSGIGGLCHHGIAAAGLSHKFQVKQFVEISPYSQSRLRHEQPQTPIHSDITTYHCHRGQFDIVAGGLPCQGTSNAGNRQGLDDPRSALWAEQFRIIESDRPAIALIENPTGLLYRGLEQIICDLDSIGYMGEWNCISAQQVGLPHQRKRIFIIAYSNGLFNQVVPAPWSNQIGNHITQVRLSLETRSYQPGISKVASRIPIGVAKNIPGNYDARRAYGLSCSPRQAAVAWKRIDYLCSLLSYQEAS | failed
6 | MRTGRSPPTPSTRCAVALVCSWSLIRVVRLSMARRSRCRLGMPSGVPGRCRRFSMTLTSLSGSTWNTRLLTAPISVRSCCTQPSWVVSRGLLVCLPSITPVLSRYGSLRSRCAWCRWLRPLTTTSPGSQRCWVPAGFGSRRTCPRTGLARRSATPLRTRCLSSSSRAVRMPRLVPYPSGCVMALRSMASSWTRQCVSLQLGTVGTATTIRLPRRCAESLMTEDYRLEFAEELVGVPDPFRRFWTPYRMAYISGENKPRGNRPEDGCPFCRAPQRSDEDALIVHRGEHCYVIMNLYPYGPGHMLVCPYRHVAGYVDATQDEVVEMAELTQDAIRTLQEVSRPQGFNVGINQGASGGAGVAAHLHQHVIPRWTGDTNFLPIVAGVRAVPQLLGDGRQMLADAWVGHA | failed
7 | LDDLSEFVDQVPLLDHHCHFLIDGKVPNRDDRLAQVSTEADKDYPLADTKNRLAYHGFLALAKEFALDANNPLAAMNDPGYATYNHRIFGHFHFKELLIDTGFVPDDPILDLDQTAELVGIPVKAIYRLETHAEDFMLEHDNFAAWWQAFSNDVKQAKAHGFVGFKSIAAYRVGLHLEPVNVIEAAAGFDTWKHSGEKRLTSKPLIDYMLYHVAPFIIAQDMPLQFHVGYGDADTDMYLGNPLLMRDYLKAFTKKGLKVVLLHCYPYHREAGYLASVFPNLYFDISLLDNLGPSGASRVFNEAVELAPYTRILFASDASTYPEMYGLAARQFKQALVAHFNQLPFVDLAQKKAWINAICWQTSAKLYHQERELRV | not failed
8 | MKLKRKILALLMAALLAVSLAGCGQTSQAPANPPAAPEAGTPTERTVTDMAGRTVTLPAEVKTVGTFGSIGVLNAFVETLSAGERLANEGSPSFVKSPTWEKYQYQFTPHIKNLKPFQGADSELLMENILAAKPDVCLTMSADLTEQLEKQGLNVVQLSWTKTEDVKECITLLGEVLNQQEVAADYLKYFDDMLAKAADLTKDIKDADKKTVVYGNVSKFSQPHVIAEWWIDKAGGISVTSEAMTKANKESLTYTLEDLLKWNPDVMFVASAAEKKEVLADARLGEITAVKNGAIYIVPRIAHVWGNRTTEQPLTIMWAMNKLYPEIVTDSQLAEDISYFYSHFFKYDFNADQLKEIMGK | failed
9 | MGFIMEFAENLVLRLMENPEERDRKAREHIYEMHERCKKIKEMWALPIRPYGFWTFERHNAQLRWDPQISQVAGRRDPYDDLLEDNYTPPSSSSSSSD | failed
10 | MNGGSSIKVLGLVGSPKVDGNTAKMVDAILEGAAENGAETVIYNLASLDIKGCDACHRCQETGCCAIDDDMQELYRQIEEADAVVLGSPVYMWQMTAQTKLLIDRMTAFLKPNFSSRLDHKKLILVFTQGIPDRDAFNSYFEYTAGVLYYLGFDVLETIVAAGTDNLEVAFRPRLLEKSRELGKLISASNPVSPRLEHHHHHH | failed
